Measured values from patent US20210246218A1 (LYVGEN BIOPHARMA SUZHOU, published 2021).
Where “and” joins values, the source holds several entries; their conditions need not be identical. Identical values can stand only once.

Tests used:
[1] = target: T1, recombinant human CD137 receptor protein (human, UniProt Q07011 24-186); experiment: ELISA, human CD137 protein coated; average, n=6
T1 construct: Coated on ELISA plates; also called recombinant human CD137 protein
Experimental: The human or cynomolgus monkey CD137 receptor protein was diluted in DPBS to 1 μg/mL, and then coated onto an ELISA plate (Corning, Catalog number: 9018, high binding) with a volume of 100 μL (0.1 μg) or 50 μL (0.05 μg) per well, and incubated at 4° C. overnight. The plate was decanted and washed once; assay diluent was added 200 μL/well. After a one-hour incubation at room temperature, the plate was washed with PBST one time. […] The plate was incubated one hour at room temperature and then washed three times with PBST. Goat anti-human IgG-H+L HRP conjugated at 1:100,000 dilution was added to the plate at 100 μL/well. The plate was then incubated one hour at room temperature followed by washing with PBST four times. The TMB substrate solution was added at 100 μL/well. The color was allowed to develop for 15 minutes, and was stopped with 100 μL/well 2N H₂SO₄. Absorbance at 450 nm and 620 nm was determined by a Tecan F200 Pro reader.
Graphpad 7.0, “[Agonist] vs. response—Variable slope (four parameters)” was used to plot the binding data and calculate binding EC₅₀ values.

[2] = target: T2, mouse CD137 on CHO cells (mouse, UniProt P20334 24-256); experiment: flow cytometry on CHO cells over-expressing the target
T2 construct: whole, on cells; also called murine cellular CD137
Experimental: (§1) The cells were resuspended in ice cold assay buffer at 2*10\hat{ }6/mL and transferred to 96-well V-bottom plate with 100 μL/well. […] The plate was incubated in the dark for 2 hours at 4° C. The cells were washed 3 times by centrifugation at 1000 g for 3 min and resuspended in 100 μL ice cold assay buffer containing goat F(ab′)₂ anti-human IgG-Fc (PE) or PE goat anti-mouse IgG antibody. The plate was incubated in the dark for another 1 hour at 4° C. The cells were washed 2 times by centrifugation at 1000 g for 3 min and resuspended in ice cold assay buffer containing 2% PFA and analyzed on the flow cytometer immediately.

[3] = target: T3, human B7-H3 on CHO cells (human, UniProt Q5ZPR3 29-534); experiment: as above
T3 construct: whole, on cells
T3 sequence (looked up): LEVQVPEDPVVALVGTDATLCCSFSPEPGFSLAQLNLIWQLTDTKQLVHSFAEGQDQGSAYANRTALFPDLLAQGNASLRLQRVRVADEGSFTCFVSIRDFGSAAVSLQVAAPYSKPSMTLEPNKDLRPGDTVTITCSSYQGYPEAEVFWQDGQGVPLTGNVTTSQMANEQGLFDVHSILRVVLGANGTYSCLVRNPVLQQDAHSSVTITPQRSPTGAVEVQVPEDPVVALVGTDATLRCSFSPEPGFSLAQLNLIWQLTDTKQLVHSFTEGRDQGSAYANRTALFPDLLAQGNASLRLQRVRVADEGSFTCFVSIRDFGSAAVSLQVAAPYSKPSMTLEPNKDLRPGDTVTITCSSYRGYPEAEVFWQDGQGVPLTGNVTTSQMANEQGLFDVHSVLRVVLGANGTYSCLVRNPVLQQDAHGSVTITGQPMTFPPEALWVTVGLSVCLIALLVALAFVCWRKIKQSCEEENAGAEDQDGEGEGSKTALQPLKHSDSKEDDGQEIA
Experimental: as §1

[4] = target: T4, Ly049; experiment: ELISA, CD137 protein coated, clone 3712 titrated; flat curve, fit marked ~ (see non_binding)
T4 chain: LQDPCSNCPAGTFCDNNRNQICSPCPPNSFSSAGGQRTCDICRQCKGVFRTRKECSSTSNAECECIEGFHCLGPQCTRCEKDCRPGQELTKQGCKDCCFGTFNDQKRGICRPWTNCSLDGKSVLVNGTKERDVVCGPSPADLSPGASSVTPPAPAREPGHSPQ
Experimental: (§2) For the data shown in FIGS. 16C-D, chimeric CD137 receptor protein samples were diluted in DPBS to 5 μg/mL and then coated onto an ELISA plate (Corning, Catalog number: 9018, high binding) at 50 μL (0.25 μg) per well, and incubated at 4° C. overnight. The plate was decanted and washed once; assay diluent was added at 200 μL/well. After a 1-hour incubation at room temperature, the plate was washed with PBST one time. […] The plate was incubated 1 hour at room temperature and then washed three times with PBST. Goat anti-human IgG-H+L HRP-conjugated at 1:100,000 dilution or goat anti-mouse IgG (H+L) secondary antibody, HRP, 10 at 1:50,000 dilution was added to the plate at 100 μL/well. The plate was incubated 1 hour at room temperature followed by washing with PBST four times. The TMB substrate solution was added 100 μL/well. The color was permitted to develop for 15 minutes and then 100 μL/well 2N H2SO4 was added to terminate the reaction. Absorbance at 450 nm and 620 nm was determined by a Tecan F200 Pro reader.

[5] = target: T5, Ly051; experiment: as above
T5 chain: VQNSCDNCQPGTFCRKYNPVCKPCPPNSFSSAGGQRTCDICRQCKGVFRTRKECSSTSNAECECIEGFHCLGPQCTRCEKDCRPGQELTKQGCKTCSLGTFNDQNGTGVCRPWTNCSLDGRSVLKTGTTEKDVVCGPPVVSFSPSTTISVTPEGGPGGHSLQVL
Experimental: as §2

[6] = target: T6, human CD137 on cells (human, UniProt Q07011 24-255); experiment: flow cytometry on human PBMC pre-activated with anti-CD3, gate on CD8+ T cells (endogenous CD137)
T6 construct: whole, on cells; also called CHO-human CD137; CHO cells over-expressing human CD137
Experimental: To obtain activated T cells in human PBMC, a 24-well plate was coated with 300 μL DPBS containing 2 μg/mL AffiniPure goat anti-mouse IgG, Fcγ fragment specific at 4° C. overnight. The plate was washed 3 times with DPBS. The antibody OKT3 was added to the plate at 1 μg/mL, 100 μL/well. The plate was incubated at 37° C. for 1 hour. A freshly thawed vial of human PBMCs was transferred into a 50 mL tube containing 25 mL pre-warmed culture medium (RPMI1640 containing 10% FBS), and spun at 250 g for 10 min The cell pellet was resuspended in 2 mL complete culture medium (culture medium containing 50 uM 2-Me) and the cell density was adjusted to 3.3*10\hat{ }6 cells/mL in the complete culture medium and then 900 μL/well cell suspension was transferred to the plate. The culture was incubated at 37° C. with 5% CO₂ for about 48 hours. After the incubation, the cells were harvested and washed once with DPBS. The cell pellet was resuspended in cold assay buffer and the cell density was adjusted to 2*10\hat{ }6 cells/mL. 100 μL of the cell suspension was transferred to a 96-well v-bottom plate. […] The plate was incubated in the dark for 30 minutes at 4° C. […] After incubation in the dark for 5 minutes at 4° C., the cells were analyzed on the flow cytometer immediately.

[7] = target: T1, recombinant human CD137 receptor protein; experiment: ELISA, clone 3712-IgG1v coated, huCD137 titrated (EC50 is a concentration of the CD137 protein); full sigmoid, plateau about 2.2
Target sequence in this assay (Q07011 24-186 limits assumed): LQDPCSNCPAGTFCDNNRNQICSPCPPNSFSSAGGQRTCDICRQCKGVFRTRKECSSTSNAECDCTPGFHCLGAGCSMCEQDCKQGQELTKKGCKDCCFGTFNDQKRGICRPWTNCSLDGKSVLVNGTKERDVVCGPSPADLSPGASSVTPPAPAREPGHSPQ

[8] = target: T1, recombinant human CD137 receptor protein; experiment: ELISA, clone 3712-IgG1v coated, huCD137 titrated (EC50 is a concentration of the CD137 protein); full sigmoid, plateau about 1.9
Target sequence in this assay (Q07011 24-186 limits assumed): as above

T2 sequence (P20334 24-256): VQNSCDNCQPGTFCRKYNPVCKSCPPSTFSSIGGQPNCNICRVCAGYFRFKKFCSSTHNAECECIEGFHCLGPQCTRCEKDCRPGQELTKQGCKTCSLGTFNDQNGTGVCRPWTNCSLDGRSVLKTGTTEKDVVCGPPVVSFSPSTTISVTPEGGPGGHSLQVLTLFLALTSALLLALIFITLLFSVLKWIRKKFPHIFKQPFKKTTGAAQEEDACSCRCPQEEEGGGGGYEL

EC50 [1]: 0.37 nM and 0.0529 µg/mL | binding result [2]: no binding | binding result [3]: no binding | EC50 [4]: ~0.903 µg/mL | EC50 [5]: ~0.00101 µg/mL | EC50 (read off the curve) [6]: ~0.03 µg/mL | EC50 [7]: 0.0669 µg/mL | EC50 [8]: 0.0562 µg/mL
B1: Clone 3712-IgG1v (IgG1v/kappa) (antibody)
heavy: QVQLVQSGAEVKKPGASVKVSCKASGYTFAGFEMHWVRQAPGQGLEWMGAIDPKTGGTDYNQKFKDRVTMTRDTSISTAYMELSRLRSDDTAVYYCARDLGYFDVWGQGTLVTVSSASTKGPSVFPLAPSSKSTSGGTAALGCLVKDYFPEPVTVSWNSGALTSGVHTFPAVLQSSGLYSLSSVVTVPSSSLGTQTYICNVNHKPSNTKVDKKVEPKSCDKTHTCPPCPAPELLGPSVFLFPPKPKDTLMISRTPEVTCVVVDVEHEDPEVKFNWYVDGVEVHNAKTKPREEQYNSTYRVVSVLTVLHQDWLNGKEYKCKVSNKALPAPIEKTISKAKGQPREPQVYTLPPSREEMTKNQVSLTCLVKGFYPSDIAVEWESNGQPENNYKTTPPVLDSDGSFFLYSKLTVDKSRWQQGNVFSCSVMHEALHNHYTQKSLSLSPGK
light: DIQMTQSPSSLSASVGDRVTITCRASQDIRSNLNWYQQKPGGAVKLLIYYTSRLHSGVPSRFSGSGSGTDYTLTISSLQPEDFATYFCQQSEKLPRTFGGGTKVEIRRTVAAPSVFIFPPSDEQLKSGTASVVCLLNNFYPREAKVQWKVDNALQSGNSQESVTEQDSKDSTYSLSSTLTLSKADYEKHKVYACEVTHQGLSSPVTKSFNRGEC
notes: copies: 2 + 2
